We go through four proteins from article PMC7374468, “Characterization of highly active 2-keto-3-deoxy-L-arabinonate and 2-keto-3-deoxy-D-xylonate dehydratases in terms of the biotransformation of hemicellulose sugars to chemicals” (Applied Microbiology and Biotechnology, 2020).

Substrate in data set [1]: O=C(O)C(=O)C[C@@H](O)CO
Description: purified protein. Type of data set: biochemical, Cupriavidus necator. Conditions: 2 mM NAD+ for coupling enzyme, 5 mM MgCl2, 50 mM HEPES pH 7.5, 25 °C.

Substrate in data set [2]: O=C(O)C(=O)C[C@H](O)CO
Description: purified protein, by the assay type. Set-up: coupled assay with PpKGSADH, NADH formation at 340 nm, Michaelis-Menten fit, 25 °C, pH 7.5. As to conditions: pH 7.5; 25.0 °C. The procedure: (§1) To determine dehydratase activity, a coupled-assay with PpKGSADH as auxiliary enzyme was used to link the oxidation of KGSA to α-KG using NAD^+, as was described in a previous study (Beer et al. [2017]). The measurement was performed in a 96-well F-bottom plate (Greiner Bio-One, Germany). 20 μL of a diluted enzyme was added to a 96-well plate. A total of 180 μL of reaction solution containing different concentrations of either D-KDP or L-KDP with 0.5 U/mL PpKGSADH, 2 mM NAD^+, 5 mM MgCl2, 50 mM HEPES pH 7.5 (end concentration) were added subsequently. The measurement was performed with a Multiskan spectrophotometer (Thermo Scientific, Germany) by measuring the development of NADH at 340 nm at 25 °C. Enzyme activity (kcat) was defined as the number of NADH molecules formed per molecule of enzyme per second. Measurements were performed in triplicate.

Substrate in data set [3]: O=C(O)C(=O)C[C@H](O)CO
Description: purified protein. Type of data set: biochemical, Caulobacter vibrioides. As to conditions: 2 mM NAD+ for coupling enzyme, 5 mM MgCl2, 50 mM HEPES pH 7.5, 25 °C.

Substrate in data set [4]: O=C(O)C(=O)C[C@@H](O)CO
Description: purified protein, by the assay type. Conditions: pH 7.5; 25.0 °C. Set-up: coupled assay with PpKGSADH, NADH formation at 340 nm, Michaelis-Menten fit, 25 °C, pH 7.5. The procedure: as §1

B1: CnL-KdpD (Nhis) (Cupriavidus necator H16) (protein)
chain: MTRTPSPTVYRGVFPVAPTVFDAQGGLDLDGQRRCIDFMIDAGSHGICILANFSEQFVLSDDERNVLMKTVLEHVDGRVPVIVTTTHFSSRLCAERSRAAQDAGAAMVMVMPPYHGATIRVPERSIYEFFATVSDAIDIPIMIQDAPVSGTTLSAPFLARMAREIGNVSYFKIEVPQAAAKLRELIELGGDAIVGPWDGEEAITLMADLEAGATGAMTGAGFPDGIRQILDAWQAGDAELAAQRYQQWLPLINYENRQGWLATSKVLMQAGGVIASDAVRHPLQPMHPATREGLLKIARRLDPLVLRWAR
notes: N-terminal His6 tag (kept), pET vector, E. coli BL21(DE3), HisTrap purified; strain given inconsistently (H16 gDNA vs N-1)
What is called Km is the substrate concentration at which the rate is half of its maximum. As a reminder, the kcat is the maximal rate divided by the concentration of active sites. By kcat/Km is commonly meant the second-order rate constant that governs catalysis at low substrate concentration. With B1, in the data set “purified protein [1]”, the Km turned out to be 170 ± 0 µM, the turnover number (kcat) stood at 23.4 ± 0.1 s⁻¹ and the catalytic efficiency (kcat/Km) amounted to 137200 ± 200 M⁻¹ s⁻¹. Besides, in data set [2], the Michaelis-Menten constant (Km) worked out at 4080 ± 210 µM, the kcat stood at 12 ± 0.16 s⁻¹ and the kcat/Km stood at 2950 ± 230 M⁻¹ s⁻¹.

B2: CnL-KdpD (Chis) (Cupriavidus necator H16) (protein)
chain: MTRTPSPTVYRGVFPVAPTVFDAQGGLDLDGQRRCIDFMIDAGSHGICILANFSEQFVLSDDERNVLMKTVLEHVDGRVPVIVTTTHFSSRLCAERSRAAQDAGAAMVMVMPPYHGATIRVPERSIYEFFATVSDAIDIPIMIQDAPVSGTTLSAPFLARMAREIGNVSYFKIEVPQAAAKLRELIELGGDAIVGPWDGEEAITLMADLEAGATGAMTGAGFPDGIRQILDAWQAGDAELAAQRYQQWLPLINYENRQGWLATSKVLMQAGGVIASDAVRHPLQPMHPATREGLLKIARRLDPLVLRWAR
notes: C-terminal His6 tag (kept), pET vector, E. coli BL21(DE3), HisTrap purified; strain given inconsistently (H16 gDNA vs N-1)
B2: in “purified protein [1]”, the Michaelis constant (Km) came to 160 ± 10 µM, the kcat amounted to 22.5 ± 0.2 s⁻¹ and the specificity constant (kcat/Km) is 137500 ± 200 M⁻¹ s⁻¹. In data set [2], the Km turned out to be 6400 ± 170 µM, the turnover number (kcat) worked out at 11.01 ± 0.08 s⁻¹ and the kcat/Km was found to be 1720 ± 160 M⁻¹ s⁻¹.

B3: CcD-KdpD1 (Caulobacter vibrioides CB15) (protein)
chain: MVCRRLLAWTARAREAEDFALVRQPTCRPHMLALPSADERAPPTVSALQTLEFWGDDAVGVSEFLPEDWKAATLLGRIDFGEGPTPVLVRGGRVEDVSKIAPTVADLMNAFQPGAVIPRGEDKGPLEALDIRPVWEDPDGAAPVKLLAPVDLQCLKAAGVTFAVSTLERVIEERARGDAGEALKIRTLLAERMGGDLKSVEPGSQGAQRLKDALIADGLWSQYLEVAIGPDAEIFTKGPTLSSMGWGDQVGVRYDSHWNNPEPEVVLLCDGSGLIRGAALGNDVNLRDFEGRSALLLSKAKDNNASCAIGPFFRLFDETFGLDDVRSAEVELKITGRDNFVLDGKSNMSLISRDPAVLAGQAYGKQHQYPDGFALFLGTMFAPIQDRDTPGQGFTHKVGDRVRVSTPKLGVLENEVTTCDKAKPWTFGISALIRNLAGRGLL
notes: C-terminal His6 tag (kept), codon-optimised synthetic gene, E. coli BL21(DE3); 58-residue N-terminal extension
As to B3, in “purified protein [3]”, the Michaelis-Menten constant (Km) was determined as 250 ± 10 µM, the turnover number (kcat) came to 45.6 ± 0.3 s⁻¹ and the specificity constant (kcat/Km) worked out at 185700 ± 200 M⁻¹ s⁻¹. Also, in data set [4], the Km came out at 2810 ± 120 µM, the catalytic constant (kcat) turned out to be 7.99 ± 0.08 s⁻¹ and the kcat/Km came to 2840 ± 210 M⁻¹ s⁻¹.

B4: CcD-KdpD2 (Caulobacter vibrioides NA1000) (protein)
chain: MGVSEFLPEDWKAATLLGRIDFGEGPTPVLVRGGRVEDVSKIAPTVADLMNAFQPGAVIPRGEDKGPLEALDIRPVWEDPDGAAPVKLLAPVDLQCLKAAGVTFAVSTLERVIEERARGDAGEALKIRTLLAERMGGDLKSVEPGSQGAQRLKDALIADGLWSQYLEVAIGPDAEIFTKGPTLSSMGWGDQVGVRYDSHWNNPEPEVVLLCDGSGLIRGAALGNDVNLRDFEGRSALLLSKAKDNNASCAIGPFFRLFDETFGLDDVRSAEVELKITGRDNFVLDGKSNMSLISRDPAVLAGQAYGKQHQYPDGFALFLGTMFAPIQDRDTPGQGFTHKVGDRVRVSTPKLGVLENEVTTCDKAKPWTFGISALIRNLAGRGLL
notes: C-terminal His6 tag (kept), pET vector, E. coli BL21(DE3), HisTrap purified
B4: in the data set “purified protein [3]”, the Michaelis-Menten constant (Km) is 290 ± 10 µM, the kcat worked out at 55.8 ± 0.4 s⁻¹ and the catalytic efficiency (kcat/Km) was found to be 190600 ± 200 M⁻¹ s⁻¹. Besides, in data set [4], the Km came to 3960 ± 130 µM, the kcat came to 9.67 ± 0.08 s⁻¹ and the kcat/Km turned out to be 2440 ± 180 M⁻¹ s⁻¹.
